Data reported in patent US20260176659A1, “IMPROVED METHOD FOR THE PRODUCTION OF NATURAL VANILLIN” (BASE SE, priority 2022, published 2026).
Values joined by “and” are separate entries in the source; they are usually repeats but may differ in a detail not shown here. Equal entries are not always repeated.

Key:
Format in all cases: biochemical
[1] = Bioconversion of eugenol to vanillin: one-pot concurrent cascade EUGO + alkene cleavage oxygenase (5 mM scale); conditions: 5 mM eugenol; for Intermediate and product distribution at 24 hours 2a [%] / Intermediate and product distribution at 24 hours 3a [%] / Intermediate and product distribution at 24 hours 5a [%] / 2a / 3a / 5a / Conv. [%] ((3a mM)/5*100): EUGO 0.5 mg CFE, CO-25 3 mg CFE, catalase 5 mg; for 2a / 3a / 5a / Conv. [%] ((3a mM)/5*100): 24 hours
Procedure, shortened: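 Cell-free extracts of EUGO (0.5 mg) and cleavage oxygenase (3 mg) were combined with catalase, 1 mM FeSO4 and 1 mM ascorbate in glycine-NaOH pH 9.0 (or Tris-HCl pH 8.0). The cascade ran with 5 mM eugenol (5% ethanol/DMSO cosolvent) at 30° C and 120 rpm overnight. Methanol-quenched samples were analysed by HPLC at 280/340 nm.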

[2] = Conversion of 50 mM coniferyl alcohol to vanillin by CO-25; conditions: for Intermediate and product distribution at 24 hours 2a [%] / Intermediate and product distribution at 24 hours 3a [%] / Intermediate and product distribution at 24 hours 5a [%] / 2a / 3a / 5a / Conv. [%]: CO-25 3 mg CFE, catalase 4 mg, 0.4 mL, 50 mM coniferyl alcohol 2a; for 2a / 3a / 5a / Conv. [%]: 24 hours
Method: In each well of a deep-well-plate sealed with a gas permeable tape we mixed CO-25 (3 mg CFE) and catalase (4 mg) with coniferyl alcohol 2a (3.6 mg, 0.02 mL from 1M stock, final conc.: 50 mM) to a final volume of 0.4 mL. After one day incubation shaking at 290 rpm we obtained 40-46% conversion of coniferyl alcohol 2a to vanillin 3a (Table 10).

[3] = Subsequent screening of alkene cleavage oxygenases: activity with coniferyl alcohol
Method: Therefore, 50 mL TB-Kan medium in a 250 mL shake flask were inoculated with an overnight preculture of E. coi BL21 (DE3) carrying a pET-28a plasmid encoding CO-25 in the expression cassette. At OD600 ˜0.8-1, the expression was induced with 0.1 mM IPTG and the culture incubated at 25° C. for 20 hours. 0.5 mM FeSO4*7H2O was added together with the inducer. Then, the cells were disrupted by sonication in Glycine-NaOH 50 mM pH 9.0 containing 1 mM FeSO4*7H2O and 1 mM sodium ascorbate. After centrifugation, the cell free extract was lyophilized and stored at −20° C. From 50 mL cell culture we obtained 235 mg of freeze-dried cell free extract.

B1: CO-25: cleavage oxygenase from Novosphingobium aromaticivorans (Uniprot: Q2GA76), SEQ ID NO: 134 (protein)
chain: MAQFPNTPSFTGFNTPSRIEADIADLAHEGTIPQGLNGAFYRVQPDPQFPPRLDDDIAFNGDGMITRFHIHDGQVDFRQRWAKTDKWKLENAAGKALFGAYRNPLTDDEAVKGEIRSTANTNAFVFGGKLWAMKEDSPALVMDPATMETFGFEKFGGKMTGQTFTAHPKVDPKTGNMVAIGYAASGLCTDDVTYMEVSPEGELVREVWFKVPYYCMMHDFGITEDYLVLHIVPSIGSWERLEQGKPHFGFDTTMPVHLGIIPRRDGVRQEDIRWFTRDNCFASHVLNAWQEGTKIHFVTCEAKNNMFPFFPDVHGAPFNGMEAMSHPTDWVVDMASNGEDFAGIVKLSDTAAEFPRIDDRFTGQKTRHGWFLEMDMKRPVELRGGSAGGLLMNCLFHKDFETGREQHWWCGPVSSLQEPCFVPRAKDAPEGDGWIVQVCNRLEEQRSDLLIFDALDIEKGPVATVNIPIRLRFGLHGNWANADEIGLAEKVLAA
modifications: Novosphingobium aromaticivorans
- Intermediate and product distribution at 24 hours 2a [%] ([1]; pH 8): 16.4% and 17.1%
- Intermediate and product distribution at 24 hours 3a [%] ([1]; pH 8): 83.1% and 82.4%
- Intermediate and product distribution at 24 hours 5a [%] ([1]; pH 8): 0.5%
- 2a ([1]; pH 8): 4.18 mM and 4.39 mM
- 3a ([1]; pH 8): 4.18 mM and 4.39 mM
- 5a ([1]; pH 8): 0.03 mM
- Conv. [%] ((3a mM)/5*100) ([1]; pH 8): 83.5% and 87.7%
- Intermediate and product distribution at 24 hours 2a [%] ([1]; pH 9): 12.8% and 11.6%
- Intermediate and product distribution at 24 hours 3a [%] ([1]; pH 9): 86.3% and 87.5%
- Intermediate and product distribution at 24 hours 5a [%] ([1]; pH 9): 0.9%
- 2a ([1]; pH 9): 4.31 mM and 4.21 mM
- 3a ([1]; pH 9): 4.31 mM and 4.21 mM
- 5a ([1]; pH 9): 0.05 mM and 0.04 mM
- Conv. [%] ((3a mM)/5*100) ([1]; pH 9): 86.2% and 84.2%
- conversion to vanillin 3a ([1]; EUGO and CO-25, 0.5 mL scale, pH 8 and 9): 83-88%
- Intermediate and product distribution at 24 hours 2a [%] ([2]; pH 8): 47.7%
- Intermediate and product distribution at 24 hours 3a [%] ([2]; pH 8): 51.1%
- Intermediate and product distribution at 24 hours 5a [%] ([2]; pH 8): 1.1%
- 2a ([2]; pH 8): 21.48 mM
- 3a ([2]; pH 8): 23.01 mM
- 5a ([2]; pH 8): 0.52 mM
- Conv. [%] ([2]; pH 8): 46.0%
- Intermediate and product distribution at 24 hours 2a [%] ([2]; pH 9): 52.5%
- Intermediate and product distribution at 24 hours 3a [%] ([2]; pH 9): 45.7%
- Intermediate and product distribution at 24 hours 5a [%] ([2]; pH 9): 1.9%
- 2a ([2]; pH 9): 22.87 mM
- 3a ([2]; pH 9): 19.92 mM
- 5a ([2]; pH 9): 0.81 mM
- Conv. [%] ([2]; pH 9): 39.8%
- conversion of coniferyl alcohol 2a to vanillin 3a ([2]; CO-25, 50 mM 2a, one day incubation): 40-46%
- activity with coniferyl alcohol in comparison to NOV1 mutant S283F [3]: significant higher activity
